From article PMC11915502 come the findings set out here.

The data set deals with His6-HppX3 (Escherichia coli 3R (chicken), …, UniProt A0A0F7IE22 1-151). The experiment in a line: EMSA. A general note: Mobility shift assays separate free from complexed probe on a gel.

B1: Bio-PactX (actX promoter probe) (dsDNA)
DNA 1: AAGTAACTAGCGGTACTAGAGTCGACCTGCAGGCATATAAAATAAGCGCA
DNA 2: TGCGCTTATTTTATATGCCTGCAGGTCGACTCTAGTACCGCTAGTTACTT
Take B1: the binding result is “binds”.
